Measurements as given in patent US20250340631A1 (HARBOUR BIOMED SHANGHAI, published 2025).
Where a chain is given by its changes, count along the chain named.

What was measured:
[1] = target: T1, human CD3 on Jurkat cells (human, UniProt P07766 23-207); assay: FACS on Jurkat cells
T1 construct: whole, on cells; on cells it stands in the whole CD3/TCR complex; also called CD3-expressing cells
Procedure: (§1) Antibodies were assayed for binding affinity by FACS. Test cells include HEK293/hCLDN18.2, HEK293/hCLDN18.1, NUGC4_D8 and Jurkat cells. […] The cell density was adjusted to 10⁶ cells/mL, and 50 μL of the cell suspension was added to each well of a 96-well plate. Antibodies were diluted to different concentrations with FACS buffer, and 50 μL of the antibody dilution was added to each well of the 96-well plate. After 2 h of incubation at 4° C., the plate was washed twice with FACS buffer. […] After 1 h of incubation at 4° C., the plate was washed twice with FACS buffer. The cells were resuspended in fixative solution, and then the fluorescence of the cells was monitored using an FACS instrument (ACEA NovoCyte).

human CLDN18.2 [2] = target: human CLDN18.2 (human); assay: cell-based or functional assay
human CLDN18.1 = target: T2, human CLDN18.1 (human, UniProt P56856 1-261); assay: FACS on HEK293/hCLDN18.1 cells
T2 construct: whole, on cells; also called hCLDN18.1
T2 sequence (P56856 whole entry): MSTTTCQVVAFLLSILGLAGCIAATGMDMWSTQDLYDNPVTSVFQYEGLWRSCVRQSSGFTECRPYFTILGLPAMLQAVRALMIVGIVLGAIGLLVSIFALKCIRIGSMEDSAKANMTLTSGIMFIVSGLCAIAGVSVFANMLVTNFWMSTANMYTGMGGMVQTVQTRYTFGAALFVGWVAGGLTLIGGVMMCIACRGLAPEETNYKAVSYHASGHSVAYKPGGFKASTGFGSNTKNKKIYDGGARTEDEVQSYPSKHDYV
Procedure: as §1

human CLDN18.2 [3] = target: T3, human CLDN18.2 (human); assay: FACS on NUGC4_D8 cells
T3 construct: the HEK293 line was made with a GenScript plasmid; also called hCLDN18.2
Procedure: as §1

[4] = target: CLDN18.2 of SNU620 cells (methionine to leucine at amino acid 149) (human, UniProt P56856-2 1-261); assay: cell-based or functional assay
CLDN18.2 of SNU620 cells (methionine to leucine at amino acid 149), sequence (P56856 other isoform, or with tags, fused parts or gaps limits assumed): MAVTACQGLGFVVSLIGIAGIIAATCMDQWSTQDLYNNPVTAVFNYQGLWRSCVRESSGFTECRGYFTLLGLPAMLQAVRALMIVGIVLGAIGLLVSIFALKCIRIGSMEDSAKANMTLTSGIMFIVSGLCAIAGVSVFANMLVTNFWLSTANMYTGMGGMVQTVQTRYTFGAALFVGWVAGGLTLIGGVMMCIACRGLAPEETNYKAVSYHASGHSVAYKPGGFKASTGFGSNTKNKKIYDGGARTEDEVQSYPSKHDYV

human CLDN18.2 [5] = target: T3, human CLDN18.2; assay: FACS on HEK293/hCLDN18.2 cells
[6] = target: T4, Cynomolgus CD3E (Acro, CDE-C5226) (cynomolgus, UniProt Q95LI5 22-117, biotinylated (mixed with biotin 1:3)); assay: BLI (Octet), biotinylated CD3 on SA sensor, 1:1 global fit;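 also: antibodies applied as analyte in 2-fold serial dilutions, with a 180 s association phase followed by a 300 s dissociation phase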
T4 sequence (looked up): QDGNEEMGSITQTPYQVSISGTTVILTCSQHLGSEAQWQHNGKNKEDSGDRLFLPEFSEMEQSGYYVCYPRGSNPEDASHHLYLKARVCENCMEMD
Procedure: (§2) The binding kinetics between proteins and antibodies was analyzed by the Biolayer Interferometry (BLI) technique using an Octet Red 96e (Fortebio) system. Human CD3E (Acro, CDE-H5223), cynomolgus CD3E (Acro, CDE-C5226) and murine CD3E (Acro, CDE-M5256) were mixed with biotin (Thermo Scientific, A39257) in a molar ratio of 1:3. The mixture was incubated at 4° C. overnight, and then excess biotin was removed to obtain biotinylated CD3E. The rotation speed was set at 1000 rpm for the system. […] After being equilibrated in the buffer for 120 s, the SA sensor with captured CD3 was allowed to bind to 2-fold serially diluted antibodies. […] Finally, the SA sensor was immersed in a 10 mM glycine-hydrochloric acid solution at pH 1.5 for regeneration to elute the antibodies bound to the sensor. […] For the interactions of fast binding and fast dissociation, the “steady state” method was selected to fit the data to obtain KD(M) values.

[7] = target: T5, Human CD3E (Acro, CDE-H5223) (human, UniProt P07766 23-126, biotinylated (mixed with biotin 1:3)); assay: as above
T5 construct: also called Human CD3Ec
T5 sequence (P07766 23-126 limits assumed): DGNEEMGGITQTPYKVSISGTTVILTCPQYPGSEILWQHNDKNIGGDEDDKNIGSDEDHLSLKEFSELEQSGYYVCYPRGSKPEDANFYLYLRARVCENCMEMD
Procedure: as §2

[8] = target: T1, human CD3 on Jurkat cells; assay: FACS on Jurkat cells; remark: listed apart in the source
Procedure: as §1

human CLDN18.2 [9] = target: T3, human CLDN18.2; assay: competition FACS on HEK293/hCLDN18.2 cells; competitor 200 nM biotinylated PR004549
human CLDN18.2 [10] = target: T3, human CLDN18.2; assay: competition FACS on HEK293/hCLDN18.2 cells; competitor 10 nM biotinylated PR000400
Human FcRn = Human FcRn (human, UniProt P55899 24-297; P61769 21-119); assay: BLI (Octet), antibody on FAB2G sensor, pH 6.0, 1:1 global fit; pH 6.0; 400-25 nM
Procedure: (§3) The binding kinetics between proteins and antibodies was analyzed by the Biolayer Interferometry (BLI) technique using an Octet Red 96e (Fortebio) system. The rotation speed was set at 1000 rpm for the system. […] After equilibrated in the buffer for 120 s, the FAB2G sensor was allowed to bind to 2-fold serially diluted human Fc receptor protein. Finally, the FAB2G sensor was immersed in a 10 mM glycine-hydrochloric acid solution at pH 1.5 for regeneration to elute the proteins bound to the sensor. The affinity assays of antibodies for FcRn were performed under the conditions of both pH 6.0 buffer and pH 7.4 buffer. […] For the interactions of fast binding and fast dissociation, the “steady state” method was selected to fit the data to obtain KD(M) values.

Human CD16a(F) = Human CD16a(F) (human, UniProt P08637 17-208); assay: BLI (Octet), antibody on FAB2G sensor
Human CD16a(F), sequence (P08637 17-208 limits assumed): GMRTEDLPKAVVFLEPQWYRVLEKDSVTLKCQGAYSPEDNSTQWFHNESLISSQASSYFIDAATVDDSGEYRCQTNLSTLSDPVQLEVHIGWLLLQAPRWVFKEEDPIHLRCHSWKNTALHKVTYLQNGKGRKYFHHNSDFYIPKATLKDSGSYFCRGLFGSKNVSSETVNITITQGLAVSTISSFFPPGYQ
Procedure: as §3

Human CD64 = target: T6, Human CD64 (human, UniProt P12314 16-288, limits assumed); assay: BLI (Octet), antibody on FAB2G sensor
T6 construct: bought recombinant protein
T6 sequence (P12314 16-288 limits assumed): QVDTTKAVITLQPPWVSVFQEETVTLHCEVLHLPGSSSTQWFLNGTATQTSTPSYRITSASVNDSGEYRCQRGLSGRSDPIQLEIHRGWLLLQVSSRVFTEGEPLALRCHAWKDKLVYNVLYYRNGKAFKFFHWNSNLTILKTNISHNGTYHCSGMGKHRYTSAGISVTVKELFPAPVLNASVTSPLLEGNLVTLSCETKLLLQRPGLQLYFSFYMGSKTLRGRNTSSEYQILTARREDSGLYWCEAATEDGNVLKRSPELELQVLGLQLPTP
Procedure: as §3

Human CD16a(V) = Human CD16a(V) (human, UniProt P08637 17-208); assay: BLI (Octet), antibody on FAB2G sensor
Human CD16a(V), sequence (P08637 17-208 F176V limits assumed): as the sequence (P08637 17-208 limits assumed) above, with F160V counted along it
Procedure: as §3

Human CD32a(H) = target: T7, Human CD32a(H) (human, UniProt P12318 36-218, limits assumed); assay: BLI (Octet), antibody on FAB2G sensor
T7 sequence (looked up): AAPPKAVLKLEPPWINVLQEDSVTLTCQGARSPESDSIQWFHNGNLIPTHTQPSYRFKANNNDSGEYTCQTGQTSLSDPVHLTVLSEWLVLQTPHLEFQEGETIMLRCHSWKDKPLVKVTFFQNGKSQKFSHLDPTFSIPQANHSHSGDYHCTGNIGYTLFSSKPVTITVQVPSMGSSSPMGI
Procedure: as §3

Human CD32b = target: T8, Human CD32b (human, UniProt P31994 46-217, limits assumed); assay: BLI (Octet), antibody on FAB2G sensor
T8 sequence (looked up): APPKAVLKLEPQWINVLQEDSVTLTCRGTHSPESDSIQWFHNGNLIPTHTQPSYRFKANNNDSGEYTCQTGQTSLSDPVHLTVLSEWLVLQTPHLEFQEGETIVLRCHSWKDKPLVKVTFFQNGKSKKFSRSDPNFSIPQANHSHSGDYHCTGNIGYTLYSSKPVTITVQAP
Procedure: as §3

[11] = target: T9, Biotinylated human CD3E&D (human, UniProt P07766 23-126; P04234 22-105, biotin label); assay: BLI (Octet), biotinylated CD3 on SA sensor, 1:1 global fit;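 also: antibodies applied as analyte in 2-fold serial dilutions, with a 180 s association phase followed by a 300 s dissociation phase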
T9 construct: also called CDD-H82W6
T9 sequence (P07766 23-126, chain 1 of 2): as the sequence (P07766 23-126 limits assumed) above
T9 sequence (P04234 22-105, chain 2 of 2): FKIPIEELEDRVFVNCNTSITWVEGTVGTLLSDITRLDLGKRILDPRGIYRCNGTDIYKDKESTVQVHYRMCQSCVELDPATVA
Procedure: as §2

[12] = target: T10, Biotinylated murine CD3E&D (murine, UniProt P22646 22-108; P04235 22-105, biotin label); assay: BLI (Octet), biotinylated CD3 on SA sensor
T10 construct: also called CDD-M82W5
T10 sequence (P22646 22-108, chain 1 of 2): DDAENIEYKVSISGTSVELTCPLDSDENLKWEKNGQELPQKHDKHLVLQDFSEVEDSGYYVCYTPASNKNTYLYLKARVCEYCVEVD
T10 sequence (P04235 22-105, chain 2 of 2): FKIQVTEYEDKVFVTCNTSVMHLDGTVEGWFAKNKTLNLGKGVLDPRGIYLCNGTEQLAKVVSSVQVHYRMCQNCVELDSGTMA
Procedure: as §2

T1 sequence (P07766 23-207): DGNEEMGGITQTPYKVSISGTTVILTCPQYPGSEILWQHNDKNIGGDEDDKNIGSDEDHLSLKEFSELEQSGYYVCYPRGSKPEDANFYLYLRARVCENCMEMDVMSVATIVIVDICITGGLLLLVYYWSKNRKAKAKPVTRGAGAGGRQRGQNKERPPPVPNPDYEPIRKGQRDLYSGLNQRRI

B1: PR005520 (bispecific antibody)
chain 1: EVQLVESGGGLVQPGGSLRLSCAASGFTFSSYWMHWVRQVPGKGLVWVSRINSDGSRTIYADSVKGRFTISRDNAKNTLYLQMNSLRAEDTAVYYCARGEDHDILTGYPIRGQGTTVTVSSGGGGSGGGGSGGGGSEVQLVESGGGLVQPGGSLRLSCAASGFTFSSYWMHWVRQVPGKGLVWVSRINSDGSRTIYADSVKGRFTISRDNAKNTLYLQMNSLRAEDTAVYYCARGEDHDILTGYPIRGQGTTVTVSSASEPKSSDKTHTCPPCPAPEAAGGPSVFLFPPKPKDTLMISRTPEVTCVVVDVSHEDPEVKFNWYVDGVEVHNAKTKPREEQYNSTYRVVSVLTVLHQDWLNGKEYKCKVSNKALPAPIEKTISKAKGQPREPQVCTLPPSREEMTKNQVSLSCAVKGFYPSDIAVEWESNGQPENNYKTTPPVLDSDGSFFLVSKLTVDKSRWQQGNVFSCSVMHEALHNHYTQKSLSLSPGK
chain 2: not shown
light: QAVVTQEPSLTVSPGGTVTLTCRSSTGAVTTSNYANWVQQKPGQAPRGLIGGTNKRAPWTPARFSGSLLGDKAALTLLGAQPEDEAEYFCALWYSNLWVFGGGTKLTVLGQPKAAPSVTLFPPSSEELQANKATLVCLISDFYPGAVTVAWKADSSPVKAGVETTTPSKQSNNKYAASSYLSLTPEQWKSHRSYSCQVTHEGSTVEKTVAPTECS
notes: PR001848 / PR004533; LALA
With B1 the binding result [1] was “binds”, the “TDCC, Titer EC50 (pM), NUGC4_D8” value (human CLDN18.2 [2]) was 22.4 pM and the binding result (human CLDN18.1) was “no binding”. It also gave an EC50 (human CLDN18.2 [3]) of 13.9 nM.

B2: PR005401 (bispecific antibody, human IgG1, lambda, L234A L235A)
chain: B1 chain 1 with N52D, D54R, N188D, D190R
heavy: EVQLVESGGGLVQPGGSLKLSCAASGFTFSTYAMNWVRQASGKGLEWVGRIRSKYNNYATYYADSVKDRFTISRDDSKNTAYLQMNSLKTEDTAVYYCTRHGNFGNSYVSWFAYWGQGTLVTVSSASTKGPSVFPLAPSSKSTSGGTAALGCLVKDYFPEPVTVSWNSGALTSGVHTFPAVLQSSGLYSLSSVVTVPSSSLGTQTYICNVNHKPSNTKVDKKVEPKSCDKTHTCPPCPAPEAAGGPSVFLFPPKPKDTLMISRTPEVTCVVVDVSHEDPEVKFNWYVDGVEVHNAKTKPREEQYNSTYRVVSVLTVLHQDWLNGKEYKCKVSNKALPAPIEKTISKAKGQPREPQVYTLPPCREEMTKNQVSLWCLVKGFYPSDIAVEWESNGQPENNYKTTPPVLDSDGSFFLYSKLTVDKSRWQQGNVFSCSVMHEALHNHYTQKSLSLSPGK
light: B1 light
notes: structure 1; CD3 Fab from PR003886, CLDN18.2 VH from PR007244; LALA
In the case of B2, the binding result [1] is reported as “binds”, the “TDCC, Titer EC50 (pM), SNU620” value [4] is reported as 25.8 pM and the “TDCC, Titer EC50 (pM), NUGC4_D8” value (human CLDN18.2 [2]) is reported as 6.4 pM. The EC50 (human CLDN18.2 [5]) was 17.5 nM and the EC50 (human CLDN18.2 [3]) was 13.1 nM.

B3: PR006293 (bispecific antibody, human IgG1, lambda)
chain: B1 chain 1 with N52S, G55A, N188S, G191A, G281A
heavy: EVQLLESGGGLVQPGGSLRLSCAASGFTFSTYAMNWVRQAPGKGLEWVSRIRSKYNNYATYYADSVKDRFTISRDDSKSTLYLQMNSLRAEDTAVYYCVRHGNFGNSYVSWFAYWGQGTLVTVSSASTKGPSVFPLAPSSKSTSGGTAALGCLVKDYFPEPVTVSWNSGALTSGVHTFPAVLQSSGLYSLSSVVTVPSSSLGTQTYICNVNHKPSNTKVDKKVEPKSCDKTHTCPPCPAPEAAGAPSVFLFPPKPKDTLMISRTPEVTCVVVDVSHEDPEVKFNWYVDGVEVHNAKTKPREEQYNSTYRVVSVLTVLHQDWLNGKEYKCKVSNKALPAPIEKTISKAKGQPREPQVYTLPPCREEMTKNQVSLWCLVKGFYPSDIAVEWESNGQPENNYKTTPPVLDSDGSFFLYSKLTVDKSRWQQGNVFSCSVMHEALHNHYTQKSLSLSPGK
light: B1 light
notes: structure 1; CD3 Fab from PR001848, CLDN18.2 VH from PR007245; AAA
A Kd [6] of 32.4 nM, a koff [6] of 0.00197 s⁻¹ and a kon [6] of 60700 M⁻¹ s⁻¹ were found for B3 in this work. For the same binder, the Kd [7] was 31.7 nM, the koff [7] was 0.00216 s⁻¹ and the kon [7] was 68100 M⁻¹ s⁻¹. The “TDCC, Titer EC50 (pM), SNU620” value [4] was 18.5 pM, the “TDCC, Titer EC50 (pM), IM95” value (human CLDN18.2 [2]) was 460 pM and the “TDCC, Titer EC50 (pM), NUGC4_D8” value (human CLDN18.2 [2]) was 87 pM. For the same binder, the EC50 [8] was 65 nM, the EC50 (human CLDN18.2 [3]) was 78 nM and the IC50 (human CLDN18.2 [9]) was 100 nM. For the same binder, the “Maximum inhibition rate (%)” value (human CLDN18.2 [9]) was 48%, the IC50 (human CLDN18.2 [10]) was 132 nM and the “Maximum inhibition rate (%)” value (human CLDN18.2 [10]) was 97.8%. The Kd (Human FcRn) was 217 nM, the koff (Human FcRn) was 0.0632 s⁻¹ and the kon (Human FcRn) was 291000 M⁻¹ s⁻¹. B3: no binding (tested: 10000-625 nM) (Human CD16a(F)); no binding (tested: 800-50 nM) (Human CD64); no binding (tested: 6000-375 nM) (Human CD16a(V)). B3: no binding (tested: 10000-625 nM) (Human CD32a(H)); no binding (tested: 10000-625 nM) (Human CD32b).

B4: PR004931 (bispecific antibody)
chain 1: QVQLVQSGAEVKKPGASVKVSCKASGYTFTEFGMNWVRQAPGQGLEWMGWINTKTGEATYVEEFKGRVTFTTDTSTSTAYMELRSLRSDDTAVYYCARWDFAYYVEAMDYWGQGTTVTVSSASTKGPSVFPLAPSSKSTSGGTAALGCLVKDYFPEPVTVSWNSGALTSGVHTFPAVLQSSGLYSLSSVVTVPSSSLGTQTYICNVNHKPSNTKVDKKVEPKSCDGGGGSGGGGSEVQLLESGGGLVQPGGSLRLSCAASGFTFSTYAMNWVRQAPGKGLEWVSRIRSKYNNYATYYADSVKGRFTISRDDSKNTLYLQMNSLRAEDTAVYYCVRHGNFGNSYVSWFAYWGQGTLVTVSSASVAAPSVFIFPPSDEQLKSGTASVVCLLNNFYPREAKVQWKVDNALQSGNSQESVTEQDSKDSTYSLSSTLTLSKADYEKHKVYACEVTHQGLSSPVTKSFNRGECDKTHTCPPCPAPEAAGGPSVFLFPPKPKDTLMISRTPEVTCVVVDVSHEDPEVKFNWYVDGVEVHNAKTKPREEQYNSTYRVVSVLTVLHQDWLNGKEYKCKVSNKALGAPIEKTISKAKGQPREPQVYTLPPCREEMTKNQVSLWCLVKGFYPSDIAVEWESNGQPENNYKTTPPVLDSDGSFFLYSKLTVDKSRWQQGNVFSCSVMHEALHNHYTQKSLSLSPGK
chain 2: QAVVTQEPSLTVSPGGTVTLTCGSSTGAVTTSNYANWVQEKPGQAFRGLIGGTNKRAPGTPARFSGSLLGGKAALTLSGAQPEDEAEYYCALWYSNLWVFGGGTKLTVLSSASTKGPSVFPLAPSSKSTSGGTAALGCLVKDYFPEPVTVSWNSGALTSGVHTFPAVLQSSGLYSLSSVVTVPSSSLGTQTYICNVNHKESNTKVDKKVEPKSC
chain 3: QVQLVQSGAEVKKPGASVKVSCKASGYTFTEFGMNWVRQAPGQGLEWMGWINTKTGEATYVEEFKGRVTFTTDTSTSTAYMELRSLRSDDTAVYYCARWDFAYYVEAMDYWGQGTTVTVSSASTKGPSVFPLAPSSKSTSGGTAALGCLVKDYFPEPVTVSWNSGALTSGVHTFPAVLQSSGLYSLSSVVTVPSSSLGTQTYICNVNHKPSNTKVDKKVEPKSCDKTHTCPPCPAPEAAGGPSVFLFPPKPKDTLMISRTPEVTCVVVDVSHEDPEVKFNWYVDGVEVHNAKTKPREEQYNSTYRVVSVLTVLHQDWLNGKEYKCKVSNKALGAPIEKTISKAKGQPREPQVCTLPPSREEMTKNQVSLSCAVKGFYPSDIAVEWESNGQPENNYKTTPPVLDSDGSFFLVSKLTVDKSRWQQGNVFSCSVMHEALHNHYTQKSLSLSPGK
chain 4: DIQMTQSPSSLSASVGDRVTITCKASAAVGTYVAWYQQKPGKAPKLLIYSASYRKRGVPSRFSGSGSGTDFTLTISSLQPEDFATYYCHQYYTYPLFTFGQGTKLEIKRTVAAPSVFIFPPSDEQLKSGTASVVCLLNNEYPREAKVQWKVDNALQSGNSQESVTEQDSKDSTYSLSSTLTLSKADYEKHKVYACEVTHQGLSSPVTKSFNRGEC
notes: also called anti-CEA×CD3 bispecific antibody (WO2017055389A1, Roche)
A Kd [11] of 33.7 nM, a koff [11] of 0.00137 s⁻¹ and a kon [11] of 40700 M⁻¹ s⁻¹ were found for B4 in this work. For the same binder, the Kd [7] was 30.8 nM, the koff [7] was 0.00225 s⁻¹ and the kon [7] was 73100 M⁻¹ s⁻¹. B4: no binding (tested: 120-7.5 nM) [12].
